One block for each binder: values may come before it.
Target: T1, HER2-His (Homo sapiens (Human), UniProt P04626 23-510)
T1 construct: Recombinant protein made in HEK293 cells; also called 重组的HER2-His; 重组HER2胞外区D1D2D3部分
Assay: SPR (Biacore X100), antibody captured by anti-Fc on CM5 chip, HER2-His as analyte, single cycle

Kd: 5.31 nM
B1: MAb2 (antibody, V domains shown)
VH: EVQLVESGGGLVQPGGSLRLSCAASGFTFNDYTMDWVRQAPGKGLEWVADVNPNSGSSIYNERFKGRFTLSVDRSKNTLYLQMNSLRAEDTAVYYCARNLGPSFYFDYWGQGTLVTVSS
VL: DIQMTQSPSSLSASVGDRVTITCRASQNINNWLTWYQQKPGKAPKLLIYAASSRQTGVPSRFSGSGSGTDFTLTISSLQPEDFATYYCQQYAKLPVTFGQGTKVEIK
notes: The constant region of MAb2 is not known (human IgG1 or an IgG1 variant); also called 对照单克隆抗体; C6G9+L1A7 (inferred)

Kd: 6.79 nM
B2: BsAb7 (bispecific antibody)
chain 1: QVQLVESGGGVVQPGGSLRLSCAASGFVLRVNTVSWYRQAPGKQRELVALITSESNEYYDDSVKGRFTISRDNAKNTIYLHMNSLKPEDTGVYFCNFITTWGQGTQVTVSSGGGGSGGGGSGGGGSQVQLVESGGGVVQPGGSLRLSCAASGFVLRVNTVSWYRQAPGKQRELVALITSESNEYYDDSVKGRFTISRDNAKNTIYLHMNSLKPEDTGVYFCNFITTWGQGTQVTVSSDKTHTCPPCPAPESTRGPSVFLFPPKPKDTLMISRTPEVTCVVVDVSHEDPEVKFNWYVDGVEVHNAKTKPREEQYNSTYRVVSVLTVLHQDWLNGKEYKCKVSNKALPAPIEKTISKAKGQPREPQVCTLPPSRDELTKNQVSLSCAVKGFYPSDIAVEWESNGQPENNYKTTPPVLDSDGSFFLVSKLTVDKSRWQQGNVFSCSVMHEALHNHYTQKSLSLSPGK
chain 2: EVQLVESGGGLVQPGRSLRLSCAASGFTFNTYAMNWVRQAPGKGLEWVARIRSKYNNYATYYADSVKDRFTISRDDSKSIAYLQMNSLKTEDTAVYYCVRHGNFGNSYVSWFAYWGQGTLVTVSSASTKGPSVFPLAPSSKSTSGGTAALGCLVKDYFPEPVTVSWNSGALTSGVHTFPAVLQSSGLYSLSSVVTVPSSSLGTQTYICNVNHKPSNTKVDKKVEPKSCDKTHTCPPCPAPESTRGPSVFLFPPKPKDTLMISRTPEVTCVVVDVSHEDPEVKFNWYVDGVEVHNAKTKPREEQYNSTYRVVSVLTVLHQDWLNGKEYKCKVSNKALPAPIEKTISKAKGQPREPQVYTLPPCRDELTKNQVSLWCLVKGFYPSDIAVEWESNGQPENNYKTTPPVLDSDGSFFLYSKLTVDKSRWQQGNVFSCSVMHEALHNHYTQKSLSLSPGK
chain 3: QTVVTQEPSLTVSPGGTVTLTCRSSTGAVTTSNYANWVQQKPGQAPRGLIGGTNKRAPGVPARFSGSLLGGKAALTLSGVQPEDEAEYFCALWYSNLWVFGGGTKLTVLGQPKAAPSVTLFPPSSEELQANKATLVCLISDFYPGAVTVAWKADSSPVKAGVETTTPSKQSNNKYAASSYLSLTPEQWKSHRSYSCQVTHEGSTVEKTVAPTECS

Kd: 9.69 nM
B3: BsAb8 (bispecific antibody)
chain 1: EVQLVESGGGLVQPGGSLRLSCAASGRSFSSFQMGWFRQAPGKEREFVAASGWSGGPTYYWDSVIGRFTISTDNSKNTLYLQMNSLRAEDTAVYYCYEDRVLSGRPVRYWGQGTLVTVSSGGGGSGGGGSGGGGSEVQLVESGGGLVQPGGSLRLSCAASGRSFSSFQMGWFRQAPGKEREFVAASGWSGGPTYYWDSVIGRFTISTDNSKNTLYLQMNSLRAEDTAVYYCYEDRVLSGRPVRYWGQGTLVTVSSDKTHTCPPCPAPESTRGPSVFLFPPKPKDTLMISRTPEVTCVVVDVSHEDPEVKFNWYVDGVEVHNAKTKPREEQYNSTYRVVSVLTVLHQDWLNGKEYKCKVSNKALPAPIEKTISKAKGQPREPQVCTLPPSRDELTKNQVSLSCAVKGFYPSDIAVEWESNGQPENNYKTTPPVLDSDGSFFLVSKLTVDKSRWQQGNVFSCSVMHEALHNHYTQKSLSLSPGK
chain 2: B2 chain 2
chain 3: B2 chain 3
